Legend:
[1] = biological target: human LAG-3 on cells (HEK293-hLAG-3 stable cell line) (human) (UniProt P18627); test: FACS, HEK293-hLAG-3, antibody 0 nM
[2] = biological target: LAG-3-hFc protein (human LAG-3 extracellular region with hFc tag) (human) (UniProt P18627); test: ELISA, inhibition of LSECtin-His binding to coated LAG-3-hFc, antibody 8.000 nM, replicate 1
[3] = biological target: LAG-3-hFc protein (human LAG-3 extracellular region with hFc tag) (human) (UniProt P18627); test: FACS, inhibition of LAG-3-hFc binding to MHC II on Raji cells, antibody 66.667 nM
[4] = biological target: monkey LAG-3 on cells (HEK293-cLAG-3 stable cell line) (monkey); test: FACS, HEK293-cLAG-3, antibody 40.000 nM
Sequence of monkey LAG-3 on cells (HEK293-cLAG-3 stable cell line) (monkey) (P18627 other isoform, or with tags, fused parts or gaps limits assumed): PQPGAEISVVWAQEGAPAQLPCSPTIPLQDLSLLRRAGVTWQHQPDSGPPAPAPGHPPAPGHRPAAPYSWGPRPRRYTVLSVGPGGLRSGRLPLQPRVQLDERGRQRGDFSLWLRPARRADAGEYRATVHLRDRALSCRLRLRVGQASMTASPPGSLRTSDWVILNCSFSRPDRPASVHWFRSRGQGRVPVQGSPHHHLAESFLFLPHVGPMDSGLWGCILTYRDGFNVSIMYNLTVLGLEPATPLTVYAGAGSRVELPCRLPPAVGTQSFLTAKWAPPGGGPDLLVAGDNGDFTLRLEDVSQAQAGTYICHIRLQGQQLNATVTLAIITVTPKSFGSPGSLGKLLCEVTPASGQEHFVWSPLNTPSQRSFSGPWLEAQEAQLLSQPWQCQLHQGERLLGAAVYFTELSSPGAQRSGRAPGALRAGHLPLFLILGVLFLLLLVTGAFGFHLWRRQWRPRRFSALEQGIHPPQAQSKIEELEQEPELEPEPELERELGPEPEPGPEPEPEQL

[5] = biological target: LAG-3-hFc protein (human LAG-3 extracellular region with hFc tag) (human) (UniProt P18627); test: ELISA, inhibition of LSECtin-His binding to coated LAG-3-hFc, antibody 40.000 nM, replicate 1
[6] = biological target: LAG-3-hFc protein (human LAG-3 extracellular region with hFc tag) (human) (UniProt P18627); test: ELISA, inhibition of LSECtin-His binding to coated LAG-3-hFc, antibody 200.000 nM, replicate 1
[7] = biological target: LAG-3-hFc protein (human LAG-3 extracellular region with hFc tag) (human) (UniProt P18627); test: FACS, inhibition of LAG-3-hFc binding to MHC II on Raji cells, antibody 7.407 nM
[8] = biological target: LAG-3-hFc protein (human LAG-3 extracellular region with hFc tag) (human) (UniProt P18627); test: ELISA, inhibition of LSECtin-His binding to coated LAG-3-hFc, antibody 8.000 nM, replicate 2
[9] = biological target: LAG-3-hFc protein (human LAG-3 extracellular region with hFc tag) (human) (UniProt P18627); test: FACS, inhibition of LAG-3-hFc binding to MHC II on Raji cells, antibody 2.469 nM
[10] = biological target: LAG-3-hFc protein (human LAG-3 extracellular region with hFc tag) (human) (UniProt P18627); test: ELISA, inhibition of LSECtin-His binding to coated LAG-3-hFc, antibody 1.600 nM, replicate 2
[11] = biological target: human LAG-3 on cells (HEK293-hLAG-3 stable cell line) (human) (UniProt P18627); test: FACS, HEK293-hLAG-3, antibody 200.000 nM
[12] = biological target: human LAG-3 on cells (HEK293-hLAG-3 stable cell line) (human) (UniProt P18627); test: FACS, HEK293-hLAG-3, antibody 0.320 nM
[13] = biological target: monkey LAG-3 on cells (HEK293-cLAG-3 stable cell line) (monkey); test: FACS, HEK293-cLAG-3, antibody 8.000 nM
[14] = biological target: LAG-3-hFc protein (human LAG-3 extracellular region with hFc tag) (human) (UniProt P18627); test: FACS, inhibition of LAG-3-hFc binding to MHC II on Raji cells, antibody 0.000 nM
[15] = biological target: T1, human LAG-3 on cells (HEK293-hLAG-3 stable cell line) (human, UniProt P18627 23-525); test: FACS, HEK293-hLAG-3, antibody 0.013 nM
T1 sequence: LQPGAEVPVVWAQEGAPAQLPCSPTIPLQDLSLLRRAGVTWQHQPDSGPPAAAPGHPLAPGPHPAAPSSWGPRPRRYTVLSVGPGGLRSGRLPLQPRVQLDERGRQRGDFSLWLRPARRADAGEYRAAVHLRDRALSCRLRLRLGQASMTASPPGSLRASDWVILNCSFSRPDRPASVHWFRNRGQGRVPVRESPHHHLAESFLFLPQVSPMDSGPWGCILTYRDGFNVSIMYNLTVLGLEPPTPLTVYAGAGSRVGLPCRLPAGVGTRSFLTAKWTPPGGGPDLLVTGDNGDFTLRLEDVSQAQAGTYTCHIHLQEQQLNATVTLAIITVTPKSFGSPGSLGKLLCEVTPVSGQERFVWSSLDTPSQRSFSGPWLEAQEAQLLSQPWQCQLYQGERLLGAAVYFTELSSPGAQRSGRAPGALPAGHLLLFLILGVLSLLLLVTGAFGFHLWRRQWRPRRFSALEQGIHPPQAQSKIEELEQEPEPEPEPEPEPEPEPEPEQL

[16] = biological target: T1, human LAG-3 on cells (HEK293-hLAG-3 …); test: FACS, HEK293-hLAG-3, antibody 0.32 nM
[17] = biological target: T1, human LAG-3 on cells (HEK293-hLAG-3 …); test: FACS, HEK293-hLAG-3, antibody 1.6 nM
[18] = biological target: T1, human LAG-3 on cells (HEK293-hLAG-3 …); test: FACS, HEK293-hLAG-3, antibody 8 nM
[19] = biological target: T1, human LAG-3 on cells (HEK293-hLAG-3 …); test: FACS, HEK293-hLAG-3, antibody 0.32 nM; remark: listed apart in the source
Excerpt: (§1) A. The binding of antibodies to LAG-3 expressing cells was detected by Flow cytometry (FACS), wherein the method was according to that of Example 5.

[20] = biological target: T1, human LAG-3 on cells (HEK293-hLAG-3 …); test: FACS, HEK293-hLAG-3, antibody 8 nM; remark: listed apart in the source
Excerpt: as §1

[21] = biological target: T1, human LAG-3 on cells (HEK293-hLAG-3 …); test: FACS, HEK293-hLAG-3, antibody 0 nM
[22] = biological target: T1, human LAG-3 on cells (HEK293-hLAG-3 …); test: FACS, HEK293-hLAG-3, antibody 0.013 nM; remark: listed apart in the source
Excerpt: as §1

[23] = biological target: T1, human LAG-3 on cells (HEK293-hLAG-3 …); test: FACS, HEK293-hLAG-3, antibody 1.6 nM; remark: listed apart in the source

hIgG control (antibody) showed a Mean fluorescence intensity [1] of 4, an Inhibition rate (%) [2] of -4.3% and an Inhibition rate (%) [3] of 12.1%. It also gave a Mean fluorescence intensity [4] of 2.88, an Inhibition rate (%) [5] of 0.7% and an Inhibition rate (%) [6] of 2.6%. It also gave an Inhibition rate (%) [7] of 8.8%, an Inhibition rate (%) [8] of -15.1% and an Inhibition rate (%) [9] of 2.1%. It also gave an Inhibition rate (%) [10] of -7.4%, a Mean fluorescence intensity [11] of 3.1 and a Mean fluorescence intensity [12] of 3.1. For the same molecule, the Mean fluorescence intensity [13] was 3.16 and the Inhibition rate (%) [14] was 17.7%.

B1: 556F6B8 mouse-human chimeric antibody (antibody, V domains shown)
VH: RVQLKQSGPGLVQPSQSLSITCTVSGFSLIKYGVHWVRQSPGEGLEWLGVIWRGGITDYNAAFMSRLSITKDNSKSQVFFKMNSLQADDTAIYYCAKWDGPLAMDYWGQGTSVTVSS
VL: DIVMTQSHKFLSTSVGDRVSITCKASQDVGTTVAWYQQKPGQSPKLLIYWASTRHTGVPDRFTGSGSGTDFTLTISNVQSEDLADYFCQQYSSYPYTFGGGTKLEIK
notes: also called mAb123-556F6B8; 556F8B8
B1 showed a Mean fluorescence intensity [15] of 6, a Mean fluorescence intensity [16] of 29 and a Mean fluorescence intensity [17] of 67. For the same molecule, the Mean fluorescence intensity [18] was 90.

B2: 405B8H3 mouse-human chimeric antibody (antibody, V domains shown)
VH: QVQLQQSGAELVRPGASVTLSCKASGYTFTDYEMHWVKQTPVHGLEWIGATDPETGNSAYNQKFKGKAIMTADKSSSTAYMELRSLTSEDSAVYYCISTGWNDWGQGTSLTVSS
VL: DIKMTQSPSSMYASLGERVTITCKASQDINSYLSWFQQKPGKSPKTLIYRADRLLDGVPSRFSGSGSGQDYSLTISSLEYGDMGIYYCLQYDEFPYTFGGGTKLEIK
notes: also called mAb103-405B8H3
In the case of B2, the Mean fluorescence intensity [19] is reported as 54, the Mean fluorescence intensity [20] is reported as 226 and the Mean fluorescence intensity [21] is reported as 4. It also gave a Mean fluorescence intensity [22] of 9 and a Mean fluorescence intensity [23] of 139.
